Experimental data from patent publication US20260242487A1.

B1: FPA144 (antibody, INN chains, looked up, V domains shown)
VH: QVQLVQSGAEVKKPGSSVKVSCKASGYIFTTYNVHWVRQAPGQGLEWIGSIYPDNGDTSYNQNFKGRATITADKSTSTAYMELSSLRSEDTAVYYCARGDFAYWGQGTLVTVSS
VL: DIQMTQSPSSLSASVGDRVTITCKASQGVSNDVAWYQQKPGKAPKLLIYSASYRYTGVPSRFSGSGSGTDFTFTISSLQPEDIATYYCQQHSTTPYTFGQGTKLEIK
B2: Aprutumab (antibody, INN chains, looked up, V domains shown)
VH: EVQLLESGGGLVQPGGSLRLSCAASGFTFSSYAMSWVRQAPGKGLEWVSAISGSGTSTYYADSVKGRFTISRDNSKNTLYLQMNSLRAEDTAVYYCARVRYNWNHGDWFDPWGQGTLVTVSS
VL: QSVLTQPPSASGTPGQRVTISCSGSSSNIGNNYVSWYQQLPGTAPKLLIYENYNRPAGVPDRFSGSKSGTSASLAISGLRSEDEADYYCSSWDDSLNYWVFGGGTKLTVL

Columns and labels:
[1] = target: hFGFR2b-Fc (Kactus, Catalog #FGR-HM2BB) (human) (UniProt P21802); experiment: competition ELISA: inhibition of FGF7-his binding to coated hFGFR2b-Fc
[2] = target: hFGFR2b-Fc (Kactus, Catalog #FGR-HM2BB) (human) (UniProt P21802); experiment: competition ELISA: inhibition of biotin-FGF10 binding to coated hFGFR2b-Fc
[3] = target: human FGFR2b expressed on cells (hFGFR2b-expressing CHOK1 cells; Ba/F3 cells expressing full-length human FGFR2b) (human) (UniProt P21802); experiment: flow cytometry on CHOK1 cells expressing hFGFR2b, detection with APC anti-human IgG Fc
[4] = target: hFGFR2b-Fc (Kactus, Catalog #FGR-HM2BB) (human) (UniProt P21802); experiment: epitope binning ELISA: competing Ab FPA144 in solution with biotin-hFGFR2b-Fc; competitor (column, coated) HC18
[5] = target: hFGFR2b-Fc (Kactus, Catalog #FGR-HM2BB) (human) (UniProt P21802); experiment: epitope binning ELISA: competing Ab FPA144 in solution with biotin-hFGFR2b-Fc; competitor (column, coated) FPA144
[6] = target: human FGFR2c expressed on CHOK1 cells (human) (UniProt P21802); experiment: flow cytometry on CHOK1 cells expressing hFGFR2c, detection with APC anti-human IgG Fc
Chain of human FGFR2c expressed on CHOK1 cells (human) (P21802 22-821): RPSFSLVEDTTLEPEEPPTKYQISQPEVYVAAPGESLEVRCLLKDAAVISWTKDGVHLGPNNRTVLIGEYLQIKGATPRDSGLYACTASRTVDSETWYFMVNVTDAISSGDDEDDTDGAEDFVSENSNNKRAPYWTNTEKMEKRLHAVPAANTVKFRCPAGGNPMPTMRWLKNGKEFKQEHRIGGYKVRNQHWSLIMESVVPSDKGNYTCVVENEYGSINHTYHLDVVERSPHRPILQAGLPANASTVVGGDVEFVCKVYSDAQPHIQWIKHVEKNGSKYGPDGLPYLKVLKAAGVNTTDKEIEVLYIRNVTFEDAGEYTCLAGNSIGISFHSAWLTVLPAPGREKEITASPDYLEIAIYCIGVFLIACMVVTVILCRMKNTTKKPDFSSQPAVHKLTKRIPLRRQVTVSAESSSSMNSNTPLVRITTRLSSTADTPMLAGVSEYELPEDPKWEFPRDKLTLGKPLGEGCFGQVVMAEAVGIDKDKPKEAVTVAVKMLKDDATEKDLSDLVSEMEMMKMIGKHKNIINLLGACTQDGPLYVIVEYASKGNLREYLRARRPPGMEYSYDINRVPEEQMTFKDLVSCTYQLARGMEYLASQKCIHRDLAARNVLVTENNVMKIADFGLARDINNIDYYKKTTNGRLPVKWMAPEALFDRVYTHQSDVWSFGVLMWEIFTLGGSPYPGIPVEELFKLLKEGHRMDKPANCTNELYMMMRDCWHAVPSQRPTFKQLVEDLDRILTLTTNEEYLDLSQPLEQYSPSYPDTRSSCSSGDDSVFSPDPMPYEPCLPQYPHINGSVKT

Chain of hFGFR2b-Fc (Kactus, Catalog #FGR-HM2BB) (human) (P21802 other isoform, or with tags, fused parts or gaps): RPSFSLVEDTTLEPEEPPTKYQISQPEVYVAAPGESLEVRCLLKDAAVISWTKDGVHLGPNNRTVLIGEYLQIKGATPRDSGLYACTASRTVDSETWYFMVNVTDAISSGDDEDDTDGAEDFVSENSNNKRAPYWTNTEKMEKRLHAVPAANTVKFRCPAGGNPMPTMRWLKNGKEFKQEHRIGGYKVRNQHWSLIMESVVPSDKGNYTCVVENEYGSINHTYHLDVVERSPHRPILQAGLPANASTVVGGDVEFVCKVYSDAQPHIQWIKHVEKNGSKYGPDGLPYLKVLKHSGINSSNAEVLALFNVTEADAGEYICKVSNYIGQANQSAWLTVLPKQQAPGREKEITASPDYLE
Chain of human FGFR2b expressed on cells (hFGFR2b-expressing CHOK1 cells; Ba/F3 cells expressing full-length human FGFR2b) (human) (P21802 other isoform, or with tags, fused parts or gaps): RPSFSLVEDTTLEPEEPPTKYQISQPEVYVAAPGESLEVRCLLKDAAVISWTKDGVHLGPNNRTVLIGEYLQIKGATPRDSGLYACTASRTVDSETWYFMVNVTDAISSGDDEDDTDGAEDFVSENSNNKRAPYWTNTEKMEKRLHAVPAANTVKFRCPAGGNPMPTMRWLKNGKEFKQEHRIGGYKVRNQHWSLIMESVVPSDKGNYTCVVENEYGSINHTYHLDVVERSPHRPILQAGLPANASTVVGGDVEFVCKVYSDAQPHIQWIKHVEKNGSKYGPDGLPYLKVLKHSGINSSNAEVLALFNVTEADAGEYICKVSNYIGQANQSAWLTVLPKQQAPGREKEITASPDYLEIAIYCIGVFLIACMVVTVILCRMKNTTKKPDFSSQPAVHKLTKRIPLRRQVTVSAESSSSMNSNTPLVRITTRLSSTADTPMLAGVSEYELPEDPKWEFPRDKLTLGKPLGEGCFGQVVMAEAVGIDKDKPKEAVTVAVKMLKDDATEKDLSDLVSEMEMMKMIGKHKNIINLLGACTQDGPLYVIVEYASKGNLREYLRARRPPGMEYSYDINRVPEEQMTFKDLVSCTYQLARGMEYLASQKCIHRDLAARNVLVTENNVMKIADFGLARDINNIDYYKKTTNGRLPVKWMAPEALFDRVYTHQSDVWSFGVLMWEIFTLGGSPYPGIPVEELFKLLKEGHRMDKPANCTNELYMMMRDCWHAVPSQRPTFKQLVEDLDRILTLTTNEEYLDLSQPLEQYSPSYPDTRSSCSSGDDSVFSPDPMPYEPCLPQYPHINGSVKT

IC50 [1] | Inhibition (%) [1] | ODmin [1] | IC50 [2] | Inhibition (%) [2] | ODmin [2] | EC50 (read off the curve) [3] | percent competition (epitope binning; value not given) [4] | percent competition (epitope binning; value not given) [5] | EC50 (read off the curve) [6] | Binder
2.4 nM | 100% | 0.172 OD | 6.65 nM | 100% | 0.496 OD | 0.2 nM | 98% | 98% |  | B1
 |  |  |  |  |  |  |  |  | 1 nM | B2
